Measurements: patent US20250082727A1, “CXCL14-BASED COMPOSITIONS AND METHOD FOR ENHANCING CARTILAGE REGENERATION” (FAR EASTERN MEMORIAL HOSPITAL, priority 2023, published 2025)

B1: CXCL14: small cytokine of the CXC chemokine family, Homo sapiens CXCL14, amino acid sequence SEQ ID NO: 1 (protein, listed as Homo sapiens)
chain: MSLLPRRAPPVSMRLLAAALLLLLLALYTARVDGSKCKCSRKGPKIRYSDVKKLEMKPKYPHCEEKMVIITTKSVSRYRGQEHCLHPKLQSTKRFIKWYNAWNEKRRVYEE

Legend:
[1] = tested on: 3D ADSC spheroids; experiment: Immunofluorescence staining of chondrogenic proteins in 3D ADSC spheroids; format: cell-based; details: 3D culture
Procedure: MSC spheroids were fixed with 4% paraformaldehyde (PFA) (PH 7.2) in PBS for 30 minutes at room temperature. The samples were then washed with PBS to remove the PFA. Next, the spheroids were carefully transferred into ice-cold methanol and incubated at −40° C. for 25 minutes. Following fixation, the spheroids were treated with 1 mg/mL sodium borohydride to clean them, and then washed with PBS. After washing, the spheroids were incubated in a blocking solution containing 10% normal rabbit serum and 1x PBS with 0.1% sodium azide for 6 hours or overnight. The samples were then incubated with primary antibodies against Collagen type II (ab34712, Abcam), SOX9 (ab185966, Abcam), COMP (sc-374660, Santa Cruz), and Aggrecan (MA3-16888, Invitrogen) for 24 hours at 4° C. Subsequently, the samples were incubated with Alexa Fluor 488-, Alexa Fluor 555-, or Alexa Fluor 647-conjugated secondary antibodies for 1 hour at room temperature. Fluorescence images were acquired using a Leica SP8 STED confocal microscope.

[2] = tested on: ADSC pellets; experiment: Alcian blue staining of ADSC pellets; format: cell-based
Procedure: (§1) To obtain a 3D pellet culture, 1×10^5 MSCs were centrifuged at 1200 rpm for 3 min in polypropylene tubes and cultured for 1 day. To induce chondrogenesis, the pelleted cells were cultured in DMEM-HG (Gibco, cat. no. 121000) containing 1% ITS-Premix (Corning, cat. no. 354352), 1% penicillin streptomycin (Gibco, cat. no. 15240), 1 mM sodium pyruvate (Gibco, cat. no. 11360070), 0.35 mM proline (Sigma-Aldrich, cat. no. P5607), 10 ng/mL TGF-β1 (SinoBio, cat. no. 10804-HNAC), 0.17 mM ascorbic acid 2-phosphate (Sigma-Aldrich, cat. no. A8960), and 100 nM dexamethasone (Sigma-Aldrich, cat. no. D4902). After induction, the chondrogenic differentiation results were evaluated on days 1, 7, 14, and 21.
(§2) To further verify the presence of chondrogenic proteins in response to CXCL14-P treatment, ADSCs were analyzed during chondrogenesis using biomarkers such as SOX9, Collagen type II, COMP, and CXCR4. On the third day of differentiation, flow cytometry was used to assess these specific chondrogenic markers. […] ADSCs were monitored until day 7, with cellular uptake of FAM-CXCL14-P observed using fluorescence microscopy, the results were shown in FIG. 7E.

[3] = tested on: human ADSCs; experiment: Flow cytometry of chondrogenic markers in ADSCs; format: cell-based; details: third day of differentiation
Procedure: as §2

[4] = tested on: ADSC; experiment: Real-time PCR of chondrogenic genes in treated ADSCs; format: cell-based, human
Procedure: as §1
To identify functional peptide sequences within the CXCL14 protein that enhance chondrogenesis, an CXCL14 peptide (CXCL14-P), which has the amino acid sequence set forth in SEQ ID NO: 2, was used for interacting with CXCR4. […]
MSC-EVs have been reported to have potential for tissue repair; however, naive EVs lack the enhanced capacity to stimulate chondrogenesis and cartilage repair. […] On day 7, ADSCs treated with CXCL14-P-MSC-EVs were analyzed for the expression of SOX9, COL2A1, ACAN, COMP, SOSTDC1, and ITGB1 genes […] using real-time PCR.

[5] = tested on: CXCL14, SOX9, COL2A1, and ACAN mRNA expressions; experiment: Real-time PCR of chondrogenic genes under TGF-b stimulation during chondrogenesis; format: cell-based; details: under a low dose of TGF-β stimulation
Procedure: as §1
To better understand the molecular mechanism relating to the control of chondrogenesis modulated by CXCL14, the chondrogenic gene expressions were investigated during chondrogenesis.

[6] = tested on: ACLT-induced OA; experiment: ACLT-induced knee OA mouse model (Safranin O, collagen II IHC, OARSI score); format: in vivo, C57BL/6 mice; details: for OARSI score: ACLT mice, ACLT group 5.5, sham 0.17
Description: Surgical ACLT is the most commonly used for generating an animal model of OA. In this study, 8-week-old specific-pathogen-free C57BL/6 mice were subjected to ACLT and medial collateral ligament (MCL) transection for establishing an OA mouse model (n=6). First, the knee joints of the hind limbs were incised along the medial edge of the patellar ligament. After the joint capsule was exposed, the ACL and MCL were transected. […] After deparaffinization, the sections were stained with hematoxylin for 3 min and differentiated in 1% acid alcohol for 15 s, followed by staining in 0.02% aqueous fast green for 3 min and counterstaining with 0.1% Safranin O for 3 min. Finally, the sections were dehydrated in serial dilutions of ethanol, cleared in xylene, mounted onto glass slides by using neutral gum. Each stained area was observed under a light microscope and photographed using a photomicroscope equipped with a CCD video camera.

[7] = tested on: SOSTDC1; experiment: qPCR validation of SOSTDC1 after CXCL14 treatment during MSC chondrogenesis; format: cell-based, human
[8] = tested on: IPFP-MSC from OA patients; experiment: Alcian blue staining of GAG during chondrogenesis of IPFP-MSC pellets; format: cell-based, human; details: day 3
Procedure: The IPFP tissue was washed repeatedly with Dulbecco's phosphate-buffered saline (Gibco, cat. no. 21600) containing 5% penicillin-streptomycin and amphotericin B solution (Gibco, cat. no. 15240). The tissue was minced and subjected to enzymatic digestion with 0.1% type I collagenase (Gibco, cat. no. 17100017) diluted in minimum essential medium α (α-MEM, Gibco, cat. no. 120000) and 1% bovine serum albumin (Sigma, cat. no. A7906) for 18 h at 37° C. After digestion, an equal amount of culture medium containing 10% fetal bovine serum was added to stop collagenase activity. The cell solution was sieved through a 100-μm mesh and centrifuged at 500 g for 5 min. The cell pellets were resuspended in culture medium (supplemented with 10% FBS, 1% penicillin-streptomycin, and amphotericin B) and seeded in a 10-cm culture dish. The medium was changed every 72 h until the cells reached 80%-90% confluence.
To obtain a 3D pellet culture, 1×10^5 MSCs were centrifuged at 1200 rpm for 3 min in polypropylene tubes and cultured for 1 day. […]
CXCL14 was analyzed to determine the stimulation of chondrogenesis and cartilage regeneration. CXCL14 was also analyzed to determine whether CXCL14 can induce chondrogenesis by using IPFP-MSC from OA patients treated with the recombinant protein CXCL14 and investigating the glycosaminoglycan (GAG) content by Alcian blue staining. […]

Row | Molecule | expressions of SOX9, Collagen type II, and Aggrecan (immunofluorescence) [1] | GAG content (Alcian blue staining) ([2]; ADSC pellets during chondrogenesis) | GAG deposition (Alcian blue staining) ([2]; ADSC pellets with varying ratios, day 7) | chondrogenic potential (SOX9, Collagen type II, COMP, CXCR4 markers) [3] | CXCL14, SOX9, and COL2A1 gene expression ([4]; ADSC, real-time PCR on day 7, compared to CXCL14 protein) | SOX9, COL2A1, COMP, and ACAN gene expression ([4]; one-day treatment then fresh medium, real-time PCR on day 7) | CXCL14, SOX9, COL2A1, and ACAN gene expression [5] | OARSI score ([6]; CXCL14 10 ng) | OARSI score ([6]; CXCL14 20 ng) | cartilage repair, staining GAG content and type II collagen ([6]; ACLT-induced OA model) | SOSTDC1 expression (qPCR) ([7]; IPFP-MSCs from OA donors) | SOSTDC1 expression (qPCR) ([7]; human ADSCs from non-OA donors) | GAG deposition (Alcian blue staining) [8]
1 | CXCL14-P: CXCL14 peptide with the amino acid sequence SEQ ID NO: 2, produced through solid-phase peptide synthesis (ITTKSVSRYRGQEH; listed as Homo sapiens) | consistent results | higher GAG content | increased GAG deposition | enhances the chondrogenic potential | stronger chondrogenic gene expression compared to the protein | significantly induced | – | – | – | – | – | – | –
2 | B1 | elevate | – | – | – | – | – | induce | 2.7 | 1 | dose-dependent stimulated cartilage repair | upregulated expression | upregulated expression | increased
